Literature values in PMC6764118.

Biological target: Lys199 (UniProt position 223, AKQRLKCASLQ)
Assay: chemical modification

In the case of “Human serum albumin (HSA) (Homo sapiens)”, the pKa is given as “∼8”.
